± gives the standard deviation.
Assay: protein stability index of a GFP-peptide fusion (GPS, HEK-293T) (PSI 1-6); higher = more stable
[1] = treatment: DMSO, c terminus: a fixed tail appended
[2] = treatment: MLN4924 1 uM, 8 h, c terminus: a fixed tail appended
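Also: 24-mer peptide tiles fused after GFP, lentivirally expressed, FACS-sorted into six equal bins by GFP/DsRed ratio, decoded by Illumina sequencing, PSI is the read-weighted mean bin number.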

Sequence | protein stability index [1] | protein stability index [2] | protein stability index (treatment: DMSO, c terminus: native) | protein stability index (treatment: MLN4924 1 uM, 8 h, c terminus: native)
TEGNPRWEQTHLTYRIENYTPDLP [MMP1] | 3.37 ± 0.099 | 3.51 ± 0.35 |  | 
ILRCWKCRKCIASSGCFMEYLENQ [RNF180] | 2.36 ± 0.4 | 2.43 ± 0.46 |  | 
PQEFQKTVSTMYYLWMCSTLALLL [SCAMP3] | 2.88 ± 0.47 | 2.77 ± 0.67 |  | 
AEEETLSRELEPELRRRRYEYDHW [ALKBH7] | 4.35 ± 0.29 | 4.59 ± 0.22 |  | 
GGAGSGFGGGYGGGLGGGYGGGLG [KRT13] | 3.35 ± 0.2 | 2.85 ± 0.2 |  | 
RRKSEAGSGAASSSGEDKENDGFV [CDC25B] | 5.42 ± 0.29 | 5.49 ± 0.18 |  | 
EEGILVAVGQDCYTRIWSLHDARL [DCAF4] | 2.26 ± 0.3 | 2.09 ± 0.31 |  | 
RDQQVEAAQRALVEVLGPYEPLLS [RETREG3] | 3.9 ± 0.17 | 4.14 ± 0.17 |  | 
RDNPMCLKCDLQERLLCPSLLAGT [M1AP] | 2.28 ± 0.14 | 2.16 ± 0.23 |  | 
DETLRSGELLNMIVAVIDSAQLQE [INTS3] | 2.84 ± 0.18 | 3.06 ± 0.39 |  | 
AWIWHDCHRHYHSMEVFTHYDLLN [LOXL2] | 2.41 ± 0.14 | 3 ± 1.2 |  | 
LLDELMGRDRNLAPDEKRSNVRWD [LUC7L3] | 3.59 ± 0.21 | 3.64 ± 0.19 |  | 
ADISQMLVCTADGDIHLSPEEPAA [TAF7L] | 4.93 ± 0.17 | 4.94 ± 0.077 |  | 
RGCSRVEGGGTSLHVACELARPEC [ANKRD9] | 3.62 ± 0.3 | 3.69 ± 0.18 |  | 
MLLQHQICKEVQAEQEPTRKLFEV [SPAG8] | 2.79 ± 0.26 | 2.78 ± 0.23 |  | 
ARVKAFNKTGVSPYSKTLVLQTSE [TRIM9] | 3.2 ± 0.28 | 3.34 ± 0.21 |  | 
QRLEEQERRHREEKERRKKQQWEI [RSPH3] | 4.45 ± 0.28 | 4.54 ± 0.31 |  | 
AIHSSDEGEDQAGDEDEDDEWDD [WAS] |  |  | 5.06 ± 0.3 | 5.25 ± 0.29

Sequence | protein stability index [1] | protein stability index [2] | protein stability index (treatment: DMSO, c terminus: native) | protein stability index (treatment: MLN4924 1 uM, 8 h, c terminus: native)
FQEAMTHLQHKLICTRKPEEIRGG [TENT5D] | 3.05 ± 0.17 | 3.29 ± 0.41 |  | 
LLQNEFVGFMWRQRGRVISLWERL [MCOLN1] | 2.7 ± 0.19 | 2.68 ± 0.26 |  | 
VNIEWHRFRFGQDQLLLATGLNNG [WSB1] | 2.76 ± 0.41 | 2.58 ± 0.45 |  | 
AQRQACMYASSAPPSEPVPSLEDI [TBX5] | 4.92 ± 0.14 | 4.96 ± 0.077 |  | 
SHSCYHDTRSGFWYVCRTQGVEGD [TRIM35] | 2.52 ± 0.27 | 2.36 ± 0.29 |  | 
QLIYNHITTRVNSEQEHFLIVPFG [ADD1] | 2.41 ± 0.27 | 2.26 ± 0.08 |  | 
EAYIAKQKRLKSKLLDHDNVKYLK [GDAP1] | 3.15 ± 0.32 | 3.45 ± 0.55 |  | 
ILLVGYPPFWDEDQHRLYKQIKAG [CAMK2A] | 2.29 ± 0.32 | 2.24 ± 0.19 |  | 
QADTVHSNPELDVLLLGSVDGRHL [DNAAF3] | 3.77 ± 0.4 | 4 ± 0.3 |  | 
KILAEAAKLVPMGFTTATEFHQRR [RAD51] | 2.56 ± 0.23 | 2.7 ± 0.52 |  | 
EHKSLESLADGGSASPIKDQPVMA [FANCE] | 5.43 ± 0.27 | 5.32 ± 0.2 |  | 
YDSQPQDVLGIRQLERPLPLTSVC [TRAF3IP2] | 3.68 ± 0.065 | 3.74 ± 0.23 |  | 
YCRLKKCLKVGMRREAVQRGRMPP [NR2F2] | 2.84 ± 0.39 | 2.77 ± 0.26 |  | 
GLRRLGLHRTEGELQKIVQAGDKD [SLC25A25] | 4.45 ± 0.12 | 4.82 ± 0.52 |  | 
SSGKLICSRTTGYQILTLEKDQEQ [GMCL1] | 3.94 ± 0.46 | 4.37 ± 0.28 |  | 
DEKQRDPRIEASKVLLCHGELRSK [NET1] | 4.42 ± 0.21 | 4.63 ± 0.22 |  | 
ADGSLRMDDPKGDFITLYQMASQS [M1AP] | 3.58 ± 0.083 | 3.53 ± 0.15 |  | 
KIQLSDSEAKSHSSADDASAWSNI [FAN1] | 4.757 ± 0.032 | 4.74 ± 0.11 |  | 
